{"source": "patent US20050123978", "data": [{"target": "T1, recombinant ANX7 (human annexin VII) (UniProt P20073)", "T1 sequence": "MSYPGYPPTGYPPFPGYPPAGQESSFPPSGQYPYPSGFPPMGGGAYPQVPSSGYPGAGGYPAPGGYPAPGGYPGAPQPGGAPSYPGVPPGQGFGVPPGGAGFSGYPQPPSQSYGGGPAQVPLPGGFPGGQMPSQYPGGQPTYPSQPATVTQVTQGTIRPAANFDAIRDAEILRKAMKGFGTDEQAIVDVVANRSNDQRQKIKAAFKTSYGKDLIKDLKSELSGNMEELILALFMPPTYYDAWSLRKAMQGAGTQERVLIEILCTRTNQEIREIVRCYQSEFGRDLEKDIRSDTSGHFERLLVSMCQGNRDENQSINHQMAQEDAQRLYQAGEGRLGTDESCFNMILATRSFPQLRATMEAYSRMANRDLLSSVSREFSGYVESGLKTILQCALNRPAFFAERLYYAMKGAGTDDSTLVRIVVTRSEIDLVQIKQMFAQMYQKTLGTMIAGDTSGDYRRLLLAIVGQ", "values": [{"substance": "Ca^2+/calmodulin Kinase II", "in vitro phosphorylation of recombinant ANX7": "no activity was detected when recombinant ANX7 was exposed to casein kinase 1, casein kinase II, or Ca^2+/calmodulin kinase II"}, {"substance": "Casein kinase I", "in vitro phosphorylation of recombinant ANX7": "no activity was detected when recombinant ANX7 was exposed to casein kinase 1, casein kinase II, or Ca^2+/calmodulin kinase II"}, {"substance": "cAMP-dependent protein Kinase", "molar ratio of ^32[P]/ANX7 protein after a 30-minute incubation": "PKA (molar ratio=1.0)"}, {"substance": "cGMP-dependent protein kinase", "molar ratio of ^32[P]/ANX7 protein after a 30-minute incubation": "PKG (molar ratio=1.0)"}, {"substance": "casein Kinase II", "in vitro phosphorylation of recombinant ANX7": "no activity was detected when recombinant ANX7 was exposed to casein kinase 1, casein kinase II, or Ca^2+/calmodulin kinase II"}, {"substance": "epidermal growth factor receptor kinase", "molar ratio of ^32[P]/ANX7 protein after a 30-minute incubation": "only five were active ... EGFR kinase (molar ratio not determined)"}, {"substance": "protein kinase C", "molar ratio of ^32[P]/ANX7 protein after a 30-minute incubation": "PKC (molar ratio=2.0)"}, {"substance": "tyrosine kinase p60^src", "molar ratio of ^32[P]/ANX7 protein after a 30-minute incubation": "p60^src (molar ratio=1.0)"}]}]}
